Test results published in patent US20220154156A1, “PROTEINS AND METHODS FOR DISRUPTING BACTERIAL COMMUNICATION” (REGENTS OF THE UNIVERSITY OF MINNESOTA, priority 2019, published 2022).
“And” between values parts separate entries of the source, which are not always exact repeats. Equal entries are not always repeated. Numbered stars: 1 amine (or outer) side, 2 acyl side, 3 side chain; on linkers, the order of the positions; unused ones are H or OH. Bridge positions count the residues as written; N and C are the ends. Square brackets hold non-standard residues; d marks the D form. Peptide text beside a SMILES is read from it. X1 = CC(C)CCCCCCCCC[C@H](CC(=O)[*:1])O[*:2]

What was measured:
[1] = system: bacterial communities at the surface of the steel; assay: 16S rDNA analysis of microbial community on steel coupons; details: treated coupons
Protocol: After photo imaging, on each of the coupon surface, all material including biofilm and tubercles were scraped into a sterile 50 ml polypropylene centrifuge tube (Corning, N.Y., USA) using a steel scraper. A 0.5 g subsample of the surface material from each coupon sample was used for DNA extraction using PowerSoil DNA kit (MoBio Laboratories). The extracted DNA was used to sequence the V4 region of 16S rDNA gene and describe changes in the composition of bacterial communities. DNA samples were quantified with a NanoDrop 2000 Spectrophotometer (Thermo Scientific, Waltham, Mass. USA) and then sent overnight to the University of Minnesota Genomics Center for 16S rDNA sequencing. 30 samples were multiplexed into a single run of Illumina MiSeq paired-end 300 cycles, which was expected to generate a total of 15 million sequences of the 254 bp portions of the 16S rDNA V4 region.
Sequence data were processed and analyzed using the MOTHUR program. To ensure high quality data for analysis, sequence reads containing ambiguous bases, homopolymers >7 bp, more than one mismatch in the primer sequence, or an average per base quality score below 25 were removed. Sequences that only appear once in the total set were assumed to be a result of sequencing error and removed from the analysis. Chimeric sequences were also removed using the UCHIME algorithm within the MOTHUR program. […]

[2] = system: corrosion tubercles on steel coupons; assay: Biocorrosion of coated steel coupons in Duluth-Superior Harbor water, 8 weeks; parameters: concentration or dose not given beside the values; details: silica gel coating, two months in DSH water
Protocol: The steel coupons were washed with soap water, lightly brushed for a few seconds with a test tube brush, and then rinsed with Milli-Q water to remove any loose material. Each coupon was designated with a unique number and weighed before being randomly assigned to a specific experimental treatment.
Each compound or enzyme was added to 5 ml of the silica gel matrix to develop different coating treatments. These coatings were applied by dipping coupons into the appropriate gel mixture for 1 minute, and then the coating on the coupon surface was air-dried at room temperature for 2 hours.
Six treatments and three controls were investigated for corrosion rate and changes in bacterial communities (Table 10). Each treatment or control contained three replicate steel coupons. After the triplicate steel coupons were coated with each biochemical, enzyme or bacterial treatment, they were incubated in experimental microcosms constructed from 10-gallon glass aquaria (Aqueon Glass, 50.8 cm×25.4 cm×30.5 cm) (FIG. 24). Each microcosm was equipped with an aquarium pump (Aquarium Systems Mini-Jet 404) to constantly circulate the water (˜2 L hr−1), and covered with a piece of acrylic with one corner cut out to allow gas exchange. The coupons were hold with plastic holders and immersed in water taken from the DSH for 8 weeks and then recovered for analyses.
The coupons in each treatment was photographed by the end of the experiment. Biocorrosion was evaluated by the number and coverage of corrosion tubercles, and also by imaging of coupon surfaces with an environmental scanning electron microscope (ESEM). The coupon images were captured with DSLR camera immediately after being removed from the harbor water, and then tubercle numbers and total area in digital images were measured using the analyze menu within ImageJ software (NIH, Bethesda, Md., USA). Surface roughness measurements were also made after the exposed coupons were cleaned with ASTM G1-90 iron and steel chemical cleaning procedure (2 min in 37% HCl, 50 g/L SnCl2). A Hitachi TM-3030 ESEM was used to view details of the cleaned coupon surface and the 3D-View software was used to generate surface roughness measurements (SRa). Statistics analysis (T-tests) of the tubercle numbers, coverage and surface roughness were performed using Microsoft Excel software.

[3] = target: GcL, quorum quenching lactonase from Geobacillus caldoxylosilyticus (Parageobacillus caldoxylosilyticus) (Geobacillus caldoxylosilyticus (Parageobacillus caldoxylosilyticus)); assay: X-ray crystal structure, homodimer interface analysis
soil bacterial community = assay: Different lactonases on soil microbial community (Example 8); assay type: cell-based; details: 7 days, vs inactive SsoPox 5A8
Protocol: Principal component analysis (PCA) based on deep bacterial 16S rDNA sequences (Illumina V4 region).
The same experiments as described above were performed on the same soil microbial community but with two different lactonases, GcL, and Ssopox W263I. These enzymes differ primarily by their substrate specificity. […] This is important because different bacteria use different AHLs to communicate. Indeed, The structure of AHLs vary a lot with respect to the length of N-acyl chains (from C4 to C18), the hydroxyl or oxo group of the acyl chain and the saturated or unsaturated state of the carbon chain^1. The hydrophobicity of AHLs relates to their passive diffusion through membranes. […] In fact, regulatory circuits may be interconnected, like in P. aeruginosa^6, and allow for compensatory responses: if the LasI/LasR system is inactivated, the RhlI/RhlR system can still control LasI/LasR-spectific functions^7.

algae and Zebra mussels = assay: Antifouling activity of acrylic-lactonase coating, Lake Minnetonka, 1 month; details: 200 μg/mL, polycarbonate, controls BSA, copper oxide
Protocol: Various polycarbonate samples were submerged in Lake Minnetonka (Tonka bay marina) for 1 month. Coatings were prepared with 200 μg/mL of control ingredients (BSA or copper oxide (CuO)) and of lactonases (SsoPox and GcL). Large zebra mussels are circled.
We note that microscopy imaging highlights large differences in the surface colonization between the different treatments.

[4] = at 75° C.; cited from earlier work
Pseudomonas aeruginosa = assay: Caenorhabditis elegans infection models (slow-killing, paralysis); assay type: in vivo; details: dose-dependent
Source text: FIG. 34A-34C show protection of Caenorhabditis elegans from infection by Pseudomonas aeruginosa by lactonases. Slow-killing, gut infection assay performed with P. aeruginosa. Lactonases SsoPox (A) and GcL (B) are sprayed in the petri dish plate, and final concentrations are given. (C) Paralysis assay by P. aeruginosa, and treatment with SsoPox. […] OP50 Escherichia coli strain serves as a non-virulent control.
The protection by lactonases is dose-dependent (FIG. 34) in both models.

[5] = Lactonase assay (pH indicator, cresol purple), kinetic measurements; assay type: biochemical
Protocol: Kinetic measurements. The determination of GcL catalytic efficiency was performed by using a microplate reader (Synergy HTX, BioTek, USA) and the software Gen5.1 over a range of substrates (FIG. 2). The reactions were operate in a 96-well plate at a path length of 5.8 mm for a 200 μl reaction volume at room temperature. The catalytic parameters were achieved by fitting the data to Michaelis-Menten equation with the Graph-Pad Prism 5 software. When, Vmax was not reached, the catalytic efficiency was determined by fitting the linear part of Michaelis-Menten plot to a linear regression using Graph-Pad Prism 5.
Lactonase assay. The AHL lactonolysis consisting in the opening of the lactone ring generates a proton, and leads to an acidification of the media. This property allowed the characterization of the lactonases by using a pH indicator assay. To perform the experiment 5 μl of enzyme were added to a solution containing 10 μl of substrates at various concentrations and 185 μl of lactonase buffer (2.5 mM Bicine pH 8.3, 150 mM NaCl, 0.2 mM CoCl2, 0.2 mM cresol purple, 0.5% DMSO). This assay was performed at 25° C. and the time course of the lactones hydrolysis was recorded at 577 nm. The characterization of the enzyme was proceeding against a large panel of AHLs: C4-AHL, C6-AHL, C8-AHL, C10-AHL, 3-oxo-C8-AHL and against γ-Butyrolactone, γ-Heptalactone, γ-Nonalactone, γ-Decanolactone, δ-Valerolactone, δ-Octanolactone, δ-Nonalactone, δ-Decalactone, ε-Caprolactone, ε-Decalactone, Whiskey lactone.

[6] = Paraoxonase activity of SsoPox variants after incubation at 80° C.; assay type: physicochemical; details: compared with wt enzyme and SsoPox W263I
[7] = Enzymatic characterization of SsoPox 6 and SsoPox 19; assay type: biochemical; details: esters, lactones and phosphotriesters; compared with wt
Source text: We determined the ability of these two variants to hydrolyze a wide range of substrates, including esters, lactones and phosphotriesters (FIG. 23).

For `CC(C)CCCCCCCCC[C@@H]1CC(=O)N[C@@H](CCC(=O)O)C(=O)N[C@@H](CC(C)C)C(=O)N[C@H](CC(C)C)C(=O)N[C@@H](C(C)C)C(=O)N[C@@H](CC(=O)O)C(=O)N[C@H](CC(C)C)C(=O)N[C@@H](CC(C)C)C(=O)O1` [surfactin] (EL[dL]VD[dL]L; linker N-C via X1), the “abundance of Burkholderiales, Pseudomonadales and Rhodospirillales” value [1] was “significantly reduced”, the “reduction of the coverage of corrosion tubercles” value [2] was 37% and the “reduction of the number (formation) of corrosion tubercles” value [2] was 31%.

With `[Mg+2].[O-][O-]` [magnesium peroxide] the “reduction of the number (formation) of corrosion tubercles” value [2] was 36%.

Molecule “GcL, quorum quenching lactonase from Geobacillus caldoxylosilyticus (Parageobacillus caldoxylosilyticus) (from UniProt A3FJ64 1-250) (enzyme)” has an interface surface between dimer [3] of 1180 Å^2.

B1: GcL: lactonase isolated from the thermophilic bacteria Geobacillus caldoxylosilyticus, SEQ ID NO:1 (protein, listed as Parageobacillus caldoxylosilyticus)
chain: MTVKKLYFIPAGRCMLDHSSVNSALTPGKLLNLPVWCYLLETEEGPILVDTGMPESAVNNEGLFNGTFVEGQILPKMTEEDRIVNILKRVGYEPDDLLYIISSHLHFDHAGGNGAFTNTPIIVQRTEYEAALHREEYMKECILPHLNYKIIEGDYEVVPGVQLLYTPGHSPGHQSLFIETEQSGSVLLTIDASYTKENFEDEVPFAGFDPELALSSIKRLKEVVKKEKPIIFFGHDIEQEKSCRVFPEYI
For B1, the “planktonic microbial community composition” value (soil bacterial community) is given as “induce differential planktonic microbial community biases”, the inhibition of biofouling (algae and Zebra mussels) is given as “more efficient at inhibiting biofouling than controls” and the half-life [4] is given as 2.542 ± 0.167 h. For the same molecule, the “survival of Caenorhabditis elegans” value (Pseudomonas aeruginosa) was “increase survival”, the substrate specificity ([5]; AHL acyl chain length) was “proficiently degrades lactones ranging from C4 to C12 AHLs” and the catalytic efficiencies ([5]; AHLs with both short and long acyl chains) was 10^4 to 10^6 M^−1·s^−1. For the same molecule, the Km ([5]; range over tested substrates (with the exception of C4-AHL)) was 0.5 to 20 µM and 0.67 to 21.1 µM.

B2: SsoPox 6: SsoPox variant R2K/S10E/S13P/K14R/V91I/L107N, SEQ ID NO:12 (protein)
chain: MKIPLVGKDEIEPRDIGFTLIHEHLRVFSEAVRQQWPHLYNEDEEFRNAVNEVKRAMQFGVKTIVDPTVMGLGRDIRFMEKVVKATGINLIAGTGIYIYIDLPFYFNNRSIDEIADLFIHDIKEGIQGTLNKAGFVKIAADEPGITKDVEKVIRAAAIANKETKVPIITHSNAHNNTGLEQQRILTEEGVDPGKILIGHLGDTDNIDYIKKIADKGSFIGLDRYGLDLFLPVDKRNETTLRLIKDGYSDKIMISHDYCCTIDWGTAKPEYKPKLAPRWSITLIFEDTIPFLKRNGVNEEVIATIFKENPKKFFS
modifications: SsoPox6 variant
In the case of B2, the “paraoxon hydrolysis after incubation of different times at 80° C.” value [6] is reported as “withstanding better the incubation at 80 °C than the wt enzyme and SsoPox W263I” and the activity levels [7] is reported as “extremely similar to those of the wt enzyme”.

B3: SsoPox 19: SsoPox variant with 19 node 55 mutations, SEQ ID NO:13 (protein)
chain: MKIPLVGKDEIEPREMGFTLIHEHLRVFSEAVRQQWPHLYNEDEEFRNAVNEVKTAMSYGVKTIVDPTVMGLGRDIRFMEKVVKATGINVIAATGIYIYTDLPFYFNNRSIDEIADLFIHDIKEGIQGTNNKAGFVKVAADEPGITKDVEKVIRAAAIAHKETKVPIITHSNAHNNTGLEQQRILMEEGVDPGKILIGHLGDTDNIDYIKKIADKGSFIGLDRYGLDLFLPVDKRNETTLKLIKDGYSDKIMISHDYCCTIDWGTAKPEYKPKLAPRWSITLIFEDTIPFLKRNGVNEEVIATIFKENPKKFFS
modifications: SsoPox19 variant
With B3 the “paraoxon hydrolysis after incubation of different times at 80° C.” value [6] was “withstanding better the incubation at 80 °C than the wt enzyme and SsoPox W263I” and the activity levels [7] was “extremely similar to those of the wt enzyme”.

B4: SsoPox: lactonase isolated from Sulfolobus solfataricus, SEQ ID NO:5 (protein, listed as Sulfolobus solfataricus)
chain: GMVRISIAGGNEIDPGSMGLTLFHEHLRLITEVVRWNWPHLYNEDEELKRAIDAVNAAKKYGVKTIIDLTVAGIGCDVRFNEKVAKATGVNIIMGTGFYTYTEIPFYFKNRGIDSLVDAFVHDITIGIQGTNTRAAFVKAVIDSSGLTKDVEMAIRAAAKAHIKTDVPIITHSFVGNKSSLDLIRIFKEEGVDLARTVIGHVGDTDDISFIEQILREGAFIGLDRFGLDIYLPLDKRVKTAIELIKRGWIDQLLLSHDYCPTIDWYPPEVVRSTVPDWTMTLIFEKVIPRMRSEGITEEQINRVLIDNPRRLFTGR
In the case of B4, the inhibition of biofouling (algae and Zebra mussels) is reported as “more efficient at inhibiting biofouling than controls” and the “survival of Caenorhabditis elegans” value (Pseudomonas aeruginosa) is reported as “increase survival”.
